According to publication PMC4942255, “MutSα maintains the mismatch repair capability by inhibiting PCNA unloading”:

What was measured:
Assay in all cases: SPR; no nucleotide or Mg2+ listed in running buffer; n = 2; SPR (BIACORE 3000): 20 mM Hepes-NaOH pH 7.5, 100 mM NaCl, 1 mM DTT, 0.005% Tween-20; 20 μl/min, 3 min association and 3 min dissociation; temperature not stated
Settings in all cases: protein: recombinant; tags: C-terminal FLAG on xMsh6; copies: 1;1; label: 3' biotin on strand 1; blunt, A:C mismatch (A at strand 1 position 22, C in strand 2)
[1] = target: xMutSα PIP (xMsh2-xMsh6PIP-FLAG) (Xenopus laevis, UniProt A0A1B4WRB1;A0A1B4WRB2 1-932;1-1340, Q4A;F10A;F11A)
Chain of xMutSα PIP (xMsh2-xMsh6PIP-FLAG) (chain, as listed by the source Q4A;F10A;F11A, chain 1 of 2): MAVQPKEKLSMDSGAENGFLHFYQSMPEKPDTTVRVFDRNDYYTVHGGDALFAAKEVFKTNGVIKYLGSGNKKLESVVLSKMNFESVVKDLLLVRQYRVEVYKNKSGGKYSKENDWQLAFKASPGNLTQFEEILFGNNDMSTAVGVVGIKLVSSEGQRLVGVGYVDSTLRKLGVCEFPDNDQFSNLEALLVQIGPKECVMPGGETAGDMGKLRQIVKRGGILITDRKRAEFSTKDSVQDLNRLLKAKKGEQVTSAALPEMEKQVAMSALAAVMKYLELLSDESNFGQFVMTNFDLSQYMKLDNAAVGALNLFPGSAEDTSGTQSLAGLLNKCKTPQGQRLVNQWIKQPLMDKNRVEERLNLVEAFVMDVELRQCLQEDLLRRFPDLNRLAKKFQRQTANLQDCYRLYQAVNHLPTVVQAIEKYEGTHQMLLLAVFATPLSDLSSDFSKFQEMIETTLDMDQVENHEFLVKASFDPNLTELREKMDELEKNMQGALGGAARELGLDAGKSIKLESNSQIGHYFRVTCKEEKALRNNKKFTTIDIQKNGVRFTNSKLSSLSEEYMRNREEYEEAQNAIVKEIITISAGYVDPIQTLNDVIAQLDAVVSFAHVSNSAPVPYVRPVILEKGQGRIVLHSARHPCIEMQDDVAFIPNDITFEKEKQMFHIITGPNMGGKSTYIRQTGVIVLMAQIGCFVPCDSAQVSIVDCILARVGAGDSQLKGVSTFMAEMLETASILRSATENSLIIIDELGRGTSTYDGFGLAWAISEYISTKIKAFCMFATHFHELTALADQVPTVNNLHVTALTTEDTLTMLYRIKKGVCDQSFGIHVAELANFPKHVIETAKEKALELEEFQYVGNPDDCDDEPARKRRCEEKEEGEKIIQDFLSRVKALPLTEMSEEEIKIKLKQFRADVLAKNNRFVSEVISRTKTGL
Chain of xMutSα PIP (xMsh2-xMsh6PIP-FLAG) (chain, as listed by the source Q4A;F10A;F11A, chain 2 of 2): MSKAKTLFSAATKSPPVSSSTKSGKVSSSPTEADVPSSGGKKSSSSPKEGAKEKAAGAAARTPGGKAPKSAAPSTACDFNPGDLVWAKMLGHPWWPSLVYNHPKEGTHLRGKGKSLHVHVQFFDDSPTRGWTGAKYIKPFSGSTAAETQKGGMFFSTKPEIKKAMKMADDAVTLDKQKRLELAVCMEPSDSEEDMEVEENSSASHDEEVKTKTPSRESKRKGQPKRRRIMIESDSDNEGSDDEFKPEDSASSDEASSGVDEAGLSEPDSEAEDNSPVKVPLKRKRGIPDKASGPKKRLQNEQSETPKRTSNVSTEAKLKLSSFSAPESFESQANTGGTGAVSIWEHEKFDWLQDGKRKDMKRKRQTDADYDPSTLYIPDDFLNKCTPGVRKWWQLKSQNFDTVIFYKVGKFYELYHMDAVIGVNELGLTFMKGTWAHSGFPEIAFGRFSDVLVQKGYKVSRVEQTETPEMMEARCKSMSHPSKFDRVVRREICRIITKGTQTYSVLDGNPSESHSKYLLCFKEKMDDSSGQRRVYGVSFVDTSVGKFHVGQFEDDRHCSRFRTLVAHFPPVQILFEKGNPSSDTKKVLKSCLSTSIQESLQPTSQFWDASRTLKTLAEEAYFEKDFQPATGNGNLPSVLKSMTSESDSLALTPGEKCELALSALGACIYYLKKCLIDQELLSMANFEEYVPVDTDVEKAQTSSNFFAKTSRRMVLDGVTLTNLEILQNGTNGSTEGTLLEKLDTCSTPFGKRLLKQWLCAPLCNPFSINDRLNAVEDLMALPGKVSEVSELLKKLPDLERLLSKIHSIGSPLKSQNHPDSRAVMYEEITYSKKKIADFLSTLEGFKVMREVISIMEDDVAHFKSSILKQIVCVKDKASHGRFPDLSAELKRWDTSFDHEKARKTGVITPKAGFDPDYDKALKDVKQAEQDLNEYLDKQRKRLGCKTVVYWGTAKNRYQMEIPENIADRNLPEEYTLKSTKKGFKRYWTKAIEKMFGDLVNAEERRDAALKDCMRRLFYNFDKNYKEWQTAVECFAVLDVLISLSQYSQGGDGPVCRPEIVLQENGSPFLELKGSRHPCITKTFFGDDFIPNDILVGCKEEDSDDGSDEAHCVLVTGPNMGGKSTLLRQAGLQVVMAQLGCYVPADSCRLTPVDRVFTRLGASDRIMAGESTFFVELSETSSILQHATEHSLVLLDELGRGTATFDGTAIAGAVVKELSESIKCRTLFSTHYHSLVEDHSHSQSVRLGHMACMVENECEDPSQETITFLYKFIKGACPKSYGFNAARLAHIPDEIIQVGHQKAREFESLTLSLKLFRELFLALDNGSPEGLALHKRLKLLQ

[2] = target: xMutSα ΔN (xMsh2-xMsh6ΔN-FLAG) (Xenopus laevis, UniProt A0A1B4WRB1;A0A1B4WRB2 1-932;=M+324-1340, internal_change)
[3] = target: xMutSα WT (xMsh2-xMsh6-FLAG) (Xenopus laevis, UniProt A0A1B4WRB1;A0A1B4WRB2 1-932;1-1340)
Chain of xMutSα WT (xMsh2-xMsh6-FLAG) (chain, as listed by the source, chain 1 of 2): as the sequence (chain, as listed by the source Q4A;F10A;F11A, chain 1 of 2) above
Chain of xMutSα WT (xMsh2-xMsh6-FLAG) (chain, as listed by the source, chain 2 of 2): as the sequence (chain, as listed by the source Q4A;F10A;F11A, chain 2 of 2) above, with A4Q, A10F, A11F counted along it

B1: 42 bp A:C mismatch oligo DNA (dsDNA)
DNA 1: GGGTGACCGTACTGCATCTCGAGATCCATGTTACTGCGTCAG
DNA 2: CTGACGCAGTAACATGGATCCCGAGATGCAGTACGGTCACCC
Kd [1]: 4.4 nM | Kd [2]: 3.6 nM | Kd [3]: 2.2 nM
